IntAct's records for PubMed 19151721

B1: SLAM family member 7 (Mus musculus), Q8BHK6 (parent)
chain: MARFSTYIIFTSVLCQLTVTAASGTLKKVAGALDGSVTFTLNITEIKVDYVVWTFNTFFLAMVKKDGVTSQSSNKERIVFPDGLYSMKLSQLKKNDSGAYRAEIYSTSSQASLIQEYVLHVYKHLSRPKVTIDRQSNKNGTCVINLTCSTDQDGENVTYSWKAVGQGDNQFHDGATLSIAWRSGEKDQALTCMARNPVSNSFSTPVFPQKLCEDAATDLTSLRGILYILCFSAVLILFAVLLTIFHTTWIKKGKGCEEDKKRVDRHQEMPDLCPHLEENADYDTIPYTEKRRPEEDAPNTFYSTVQIPKVVKSPSSLPAKPLVPRSLSFENVI
partner: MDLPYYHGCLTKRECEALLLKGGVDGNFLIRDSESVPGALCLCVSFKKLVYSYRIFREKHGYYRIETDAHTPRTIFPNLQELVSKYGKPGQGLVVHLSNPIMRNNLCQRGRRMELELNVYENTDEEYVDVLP

Variants of: B1
Details: with sh21b_mouse Sh2d1b

| effect of a mutation on the interaction | Variant |
| --- | --- |
| disrupting interaction | Y282F;Y287F;Y302F |
| disrupting interaction | Y302F |
